In publication PMC8439235, “High-yield synthesis and purification of recombinant human GABA transaminase for high-throughput screening assays” (Journal of Enzyme Inhibition and Medicinal Chemistry, 2021):

Molecular target: the molecule itself
Test: SEC; Superdex 200 Increase 10/300 GL, 50 mM K4P2O7 buffer pH 8.6, 0.5 ml/min, 4 °C; size judged against standard peaks (158 kDa and 44 kDa) and the 53 kDa monomer band on reducing SDS-PAGE

B1: 6xHis-tagged recombinant human GABA transaminase (GABA-T) (enzyme)
chain: not shown
notes: human GABA transaminase (GABA-T; EC 2.6.1.19) encoded by the ABAT gene; The band on reducing SDS-PAGE was 53 kDa; The purification tag was not removed; also called γ-aminobutyric acid transaminase; 4-aminobutyrate transaminase; source: Expi293F cells, transiently transfected, purified (Ni-NTA, size-exclusion chromatography); not shown: Avi-tag (preceded by an HRV 3C protease site), C-terminal, …
- stoichiometry N: 2
